Patent publication CN116836268A
Changes are numbered by the printed parent chain.

B1: S4B3VH-h2+L1C9VK-mIgG2a (antibody, V domains shown)
VH: QVQLVQSGAEVKKPGSSVKVSCKASGYIFNSYSIHWVRQAPGQGLEWIGAIYPGNGDTSNSQRFKGKATITADKSASTAYMELSSLRSEDTAVYYCARDGYDDSYGLDYWGQGTTVTVSS
VL: DIQLTQSPSTLSASVGDRVTITCRASQNIGGWLAWYQQKPGKAPNLLIYQASTLESGVPSRFSGSGSGTEFTLTISSLQAEDFATYHCQQYSGFPWTFGQGTKVEIKR
B2: S4B3VH-h2+L1B2VK-mIgG2a (antibody, V domains shown)
VH: B1 VH
VL: DIQMTQSPSSLSASVGDRVTITCRASQNIHNYLDWYQQKPGKAPKLLIYSASSRETGVPSSFSGSGSGTDFTLTISSLQPEDFATYYCQQFQQIPWTFGQGTKVEIKR
B3: S4B3VH-h1+L1B2VK-mIgG2a (antibody, V domains shown)
VH: B1 VH with K67R, A68V, A76T
VL: B2 VL
B4: S4B3VH-h2+S4B3VK-h1-mIgG2a (antibody, V domains shown)
VH: B1 VH
VL: DIVMTQSPDSLAVSLGERATINCKASQNVGTNVAWYQQKPGQPPKALIYSASYRYSGVPDRFSGSGSGTDFTLTISSLQAEDVAVYFCQQYNSYPLTFGQGTKLEIKR
B5: S4B3VH-h1+S4B3VK-h1-mIgG2a (antibody, V domains shown)
VH: B1 VH with K67R, A68V, A76T
VL: B4 VL
B6: S4B3VH-h1+L1C9VK-mIgG2a (antibody, V domains shown)
VH: B1 VH with K67R, A68V, A76T
VL: B1 VL

Target: Cov-S-His (SARS-CoV-2)
Assay: SPR, Biacore T200, antibody captured by anti-mouse Fc, Cov-S-His as analyte

Row | Binder | Kd
1 | B1 | 5.76 nM
2 | B2 | 3.04 nM
3 | B3 | 2.86 nM
4 | B4 | 23.9 nM
5 | B5 | 14.5 nM
6 | B6 | 5 nM
